Series [1] deals with NF-IL6 full length (24-345). The experiment in a line: EMSA. The conditions noted are these: CITED Brasier and Kumar 1994; indistinguishable from TCD WT; cited from earlier work. Background: A gel shift assay detects complexes by their altered migration in electrophoresis.
The target of series [2] is NF-IL6 TCD WT (tryptic core domain, aa 266-345) (UniProt P17676). The experiment in a line: EMSA. The conditions noted are these: CITED Brasier and Kumar 1994; cited from earlier work.
For a further series, the target named is NF-IL6 TCD V267A (UniProt P17676 SEQ:2-81, V267A). The experiment in a line: EMSA; binding specificity indistinguishable from the other TCD peptides. Conditions: tags: untagged, initiator Met removed; chain copies: 2 inferred; label: 32P fill-in; BamHI/BglII overhangs.
The next series addresses NF-IL6 TCD S271A (UniProt P17676 SEQ:2-81, S271A). The series is described as above. Conditions: tags: untagged, initiator Met removed; chain copies: 2 inferred; label: 32P fill-in; BamHI/BglII overhangs.

NF-IL6 TCD WT (tryptic core domain, aa 266-345), sequence (P17676 other isoform, or with tags, fused parts or gaps): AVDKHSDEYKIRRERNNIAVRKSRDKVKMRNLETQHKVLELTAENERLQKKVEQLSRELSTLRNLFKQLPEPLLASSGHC
NF-IL6 TCD V267A, sequence (P17676 other isoform, or with tags, fused parts or gaps V267A | V267A V267A): as the sequence (P17676 other isoform, or with tags, fused parts or gaps) above, with V2A counted along it
NF-IL6 TCD S271A, sequence (P17676 other isoform, or with tags, fused parts or gaps S271A | S271A S271A): as the sequence (P17676 other isoform, or with tags, fused parts or gaps) above, with S6A counted along it

In the case of APRE DNA (site used in cited work), the Kd in series [1] and in series [2] was 36 nM each time.

B1: APRE M6 (32P) (dsDNA)
DNA 1: GATCCACCACAGTTGTGATTTCACAACCTGACCA
DNA 2: TGGTCAGGTTGTGAAATCACAACTGTGGTGGATC
In the case of B1, the binding result with NF-IL6 TCD V267A and in the series with NF-IL6 TCD S271A was “binds” in each case.

The term Kd denotes the free concentration of one partner at which half of the binding sites on the other are occupied at equilibrium, for simple one-to-one binding.

(Values after patent US5804445, “High affinity mutants of nuclear factor-interleukin 6 and methods of use therefor” (Board of Regents, The University of Texas System).)
